# Target: T1, Nup98 (human (endogenous in HeLa), UniProt P52948 1-880)
# T1 construct: Nup98, the N-terminal product of the autoproteolytic cleavage of the Nup98-Nup96 precursor
# T1 sequence (looked up): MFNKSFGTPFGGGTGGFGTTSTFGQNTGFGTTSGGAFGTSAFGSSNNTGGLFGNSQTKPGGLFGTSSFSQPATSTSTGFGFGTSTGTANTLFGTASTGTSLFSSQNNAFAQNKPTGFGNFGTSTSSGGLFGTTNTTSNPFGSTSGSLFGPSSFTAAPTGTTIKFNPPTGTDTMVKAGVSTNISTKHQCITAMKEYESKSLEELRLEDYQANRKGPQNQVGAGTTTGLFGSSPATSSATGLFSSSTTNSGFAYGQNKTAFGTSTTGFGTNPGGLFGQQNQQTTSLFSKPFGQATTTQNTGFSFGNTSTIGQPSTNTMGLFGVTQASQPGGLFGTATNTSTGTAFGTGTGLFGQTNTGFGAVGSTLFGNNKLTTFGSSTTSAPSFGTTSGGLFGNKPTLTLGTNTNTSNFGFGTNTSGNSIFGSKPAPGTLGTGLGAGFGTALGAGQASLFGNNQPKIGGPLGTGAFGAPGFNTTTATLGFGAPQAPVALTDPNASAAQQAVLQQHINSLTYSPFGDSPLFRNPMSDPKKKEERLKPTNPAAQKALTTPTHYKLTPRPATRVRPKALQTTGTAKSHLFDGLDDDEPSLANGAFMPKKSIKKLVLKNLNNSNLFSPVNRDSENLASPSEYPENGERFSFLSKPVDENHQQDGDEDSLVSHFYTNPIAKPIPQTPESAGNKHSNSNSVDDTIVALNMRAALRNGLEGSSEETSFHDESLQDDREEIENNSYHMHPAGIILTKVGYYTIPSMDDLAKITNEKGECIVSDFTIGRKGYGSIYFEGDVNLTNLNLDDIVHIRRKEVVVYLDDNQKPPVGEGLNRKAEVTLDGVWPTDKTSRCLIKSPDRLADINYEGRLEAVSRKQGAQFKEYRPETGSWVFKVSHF
# Assay: […] 300 mM NaCl, 20 mM Hepes pH 7.4, 0.5% Triton X-100; +4 °C; […]
# Conditions: partners not purified
binder,measurement,value
"Rae1 (natural protein, human (endogenous in HeLa), UniProt P78406 1-368, looked up, Rae1, shuttling mRNA export factor) MSLFGTTSGFGTSGTSMFGSATTDNHNPMKDIEVTSSPDDSIGCLSFSPPTLPGNFLIAGSWANDVRCWEVQDSGQTIPKAQQMHTGPVLDVCWSDDGSKVFTASCDKTAKMWDLSSNQAIQIAQHDAPVKTIHWIKAPNYSCVMTGSWDKTLKFWDTRSSNPMMVLQLPERCYCADVIYPMAVVATAERGLIVYQLENQPSEFRRIESPLKHQHRCVAIFKDKQNKPTGFALGSIEGRVAIHYINPPNPAKDNFTFKCHRSNGTNTSAPQDIYAVNGIAFHPVHGTLATVGSDGRFSFWDKDARTKLKTSEQLDQPISACCFNHNGNIFAYASSYDWSKGHEFYNPQKKNYIFLRNAAEELKPRNKK",stoichiometry N,~1 Nup98:Rae1
